Assay results from patent publication US20230331827A1, “POTASSIUM CHANNEL INHIBITORS” (priority 2017, published 2023).
Like-named read-outs stand apart in the source and are kept apart here.

What was measured:
[1] = molecular target: T1, human Kv1.1 (huKv1.1) (Homo sapiens, UniProt Q09470); experiment: QPatch automated patch-clamp, CHO-S cells expressing huKv1.1 (Examples 20-21); format: cell-based
T1 construct: expressed in transfected cells; host or cells: Freestyle CHO-S
Description: 1. The effect of these KnotBodies on cells expressing human Kv1.1 (huKv1.1) and Kv1.3 (huKv1.3) channels was assessed using QPatch automated patch-clamp platform (Sophion).
To generate huKv1.1 expressing cells, Freestyle CHO-S cells (Cat. no. R80007, Life Technologies, California, USA) were transfected with pINT50-Tr plasmid encoding huKv1.1 gene using the MaxCyte STX (MaxCyte) transfection system. In pINT50-Tr plasmid, huKv1.1 gene is under the control of a CMV promoter. 64 µg of the plasmid DNA were added to 400 µl of Freestyle CHO-S cells (at a density of 1 × 10^8 cells/ml) in Electroporation Buffer (GE Healthcare Life Sciences, Cat. no. EPB1) in an OC-400 processing assembly (MaxCyte). Following electroporation, the cells were transferred to a well of a 24-well plate containing 200 U/ml DNAse I (Sigma, D4263) and incubated for 20 minutes at 37° C. and 5% CO2. The cells were then transferred into a 100 ml shaker flask containing 20 ml of CD Opticho Media (Thermo Fisher Scientific, Cat.No 12681-011,) supplemented with 8 mM L-Glut (Thermo Fisher Scientific, cat. no. 25030-024). The cells were incubated for 24 hours at 37° C. and 5% CO2 (and 75% humidity and shaking at 800 rpm) prior to testing using automated patch clamp electrophysiology.
(§1) For the testing of Kv1.1 and Kv1.3, CHO-S expressing huKv1.1 (described above) or CHO cells stably expressing huKv1.3 (Charles River Lab) were analysed using the QPatch electrophysiology assay in the presence or absence of the KnotBody fusions. Internal and external physiological solutions were freshly prepared prior to the assay. The extracellular solution contained 145 mM NaCl, 4 mM KC1, 2 mM CaC12, 1 mM MgC12, 10 mM HEPES and 10 mM glucose; the pH was adjusted to 7.4 with NaOH; the osmolarity was ~ 305 mOsm/L. The intracellular solution contained: KF (120 mM), KC1 (20 mM), HEPES (10 mM) EGTA (10 mM); the pH was adjusted to 7.2 with KOH; osmolarity was ~ 300 mOsm/L.
(§2) A series of depolarising voltage (channel activating) pulses were used to monitor the channel currents upon adding control (extracellular solution) to define a control baseline of current activity. To these measured control currents four, ascending concentrations of KnotBodies (including previously described KB_A12_ShK and KB_A12_KTX described in Example 8) or parental antibody isotypes (control molecules) were applied to the external bathing solution. KnotBodies KB_A12 and KB_A07 (EETI-II fusions) were used as isotype controls for the testing. From a holding voltage of -80 mV a depolarising, activating voltage pulses of +30 were applied for 300 ms, every 10 seconds. The elicited, maximum outward current values measured during the activating step for each solution exchange period, averaged (n = 3 - 6 for each concentration applied) and plotted as concentration-response curves (see FIG. 33). From these concentration-response curves IC50 values were calculated (see Table E20).
(§3) For the testing of Kv1.1 and Kv1.3, CHO-S expressing huKv1.1 (see Example 20 and below) or CHO cells stably expressing huKv1.3 (Charles River Lab) were analysed using the QPatch electrophysiology assay in the presence or absence of the KnotBody fusions - see details in Examples 19 and 20.
In addition to the CHO-S transiently expressing huKv1.1 (described in Example 20), CHO-S cells with poly-clonal stable expression of huKv1.1 cells were also made and used in the QPatch electrophysiology assay. To generate the polyclonal stable huKv1.1 cells from the transiently expressing cells described in Example 20, after a 24 hour incubation period the selection antibiotic Puromycin (catalogue no. A1 1138-03, Life Technologies, California, USA) was added to culture media. Then, for the first 14 days puromycin was at 10 µg ml-1 media; at days 15-28 puromycin was at 20 µg ml-1 media. Cell cultures were seeded at 2.5 x 10^5 cells ml^-1 into fresh culture media and puromycin twice per week through this selection growth period. […]

[2] = molecular target: T2, human Kv1.3 (huKv1.3) (Homo sapiens, UniProt P22001); experiment: QPatch automated patch-clamp, CHO cells stably expressing human Kv1.3 (Examples 19-21); format: cell-based
T2 construct: host or cells: CHO
Description: The effect of these KnotBodies on cells expressing human Kv1.3 (huKv1.3) channel was assessed using the QPatch automated patch-clamp platform (Sophion, Ballerup, Denmark). For the testing of Kv1.3 ion channel currents, CHO cells stably expressing human Kv1.3 (GenBank accession number NM_002232.2; cell line catalogue number CT6133, Charles River Discovery, Cleveland, USA) were subjected to a QPatch electrophysiology assay in the presence or absence of the KnotBody fusions or the antibody isotypes (negative controls). Internal and external physiological solutions were freshly prepared prior to the assay. The extracellular solution contained 145 mM NaCl, 4 mM KC1, 2 mM CaC12, 1 mM MgC12, 10 mM HEPES and 10 mM glucose; the pH was adjusted to 7.4 with NaOH; the osmolarity was ~ 305 mOsm/L. The intracellular solution contained: KF (120 mM), KC1 (20 mM), HEPES (10 mM) EGTA (10 mM); the pH was adjusted to 7.2 with KOH; osmolarity was ~ 300 mOsm/L.
as §2, with “(including” for “(including previously described”, “KB_A12_KTX as previously” for “KB_A12_KTX”, “+30 mV” for “+30”, “32).” for “33).”, “calculated.” for “calculated (see Table E20).”
as §1, §2, §3

[3] = four-point curves of FIG. 33, Table E20
[4] = Kv1.1 IC50 over Kv1.3 IC50, Table E20
[5] = four-point curves of FIG. 33, Table E20, read-out: Kv1.3 IC50
[6] = huKv1.3, four-point curves of FIG. 32, Table E19, read-out: IC50

T2 sequence (P22001 whole entry): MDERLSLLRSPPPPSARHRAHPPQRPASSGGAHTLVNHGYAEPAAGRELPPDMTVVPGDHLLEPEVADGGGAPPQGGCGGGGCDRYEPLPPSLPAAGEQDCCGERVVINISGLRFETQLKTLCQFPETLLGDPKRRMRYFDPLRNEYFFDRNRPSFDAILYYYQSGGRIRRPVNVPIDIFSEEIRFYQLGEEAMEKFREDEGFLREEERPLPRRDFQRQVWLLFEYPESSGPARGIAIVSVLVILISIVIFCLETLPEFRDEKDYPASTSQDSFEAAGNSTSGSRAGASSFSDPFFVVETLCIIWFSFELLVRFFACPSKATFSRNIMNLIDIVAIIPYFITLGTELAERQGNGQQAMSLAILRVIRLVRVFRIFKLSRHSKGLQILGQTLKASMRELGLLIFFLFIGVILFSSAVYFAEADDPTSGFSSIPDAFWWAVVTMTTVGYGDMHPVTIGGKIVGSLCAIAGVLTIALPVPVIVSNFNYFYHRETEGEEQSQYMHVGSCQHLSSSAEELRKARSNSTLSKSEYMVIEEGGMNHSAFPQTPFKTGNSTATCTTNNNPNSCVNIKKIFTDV
T1 sequence (Q09470 whole entry): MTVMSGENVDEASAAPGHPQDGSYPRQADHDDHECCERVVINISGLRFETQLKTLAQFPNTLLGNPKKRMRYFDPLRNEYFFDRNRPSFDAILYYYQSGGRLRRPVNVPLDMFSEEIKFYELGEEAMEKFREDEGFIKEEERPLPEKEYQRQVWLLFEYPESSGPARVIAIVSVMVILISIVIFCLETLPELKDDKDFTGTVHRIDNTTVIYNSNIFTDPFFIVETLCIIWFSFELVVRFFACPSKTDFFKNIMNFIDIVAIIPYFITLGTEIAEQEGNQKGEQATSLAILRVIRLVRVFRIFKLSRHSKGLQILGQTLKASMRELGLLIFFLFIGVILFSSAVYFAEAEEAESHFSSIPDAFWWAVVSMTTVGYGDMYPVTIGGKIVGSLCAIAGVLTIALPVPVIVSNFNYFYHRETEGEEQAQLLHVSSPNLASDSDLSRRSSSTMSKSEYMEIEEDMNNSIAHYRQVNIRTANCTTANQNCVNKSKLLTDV

B1: KB_A12_Vm24: Vm24 in VL CDR2 of KB_A12, IgG (antibody, V domains shown)
VH: EVQLVESGGGLVRPGGSLRLSCAASGFTFSSYAMSWVRQAPGKGLEWVSAISGSGGSTYYADSVKGRFTISRDNTKNSLYLQMTSLRADDTAFYYCVKDFGPGYGTGWFDYWGPGTLVTVSS
VL: QSVLTQPPSVSEAPRQRVTITCSGSSSNIGNNAVNWYQQLPGKAPKLLIYAAGRAAAISCVGSPECPPKCRAQGCKNGKCMNRKCKCYYCANSGVSDRFSAAKSGTSASLAINGLRSEDEADYYCAAWDDSLNGYVFGTGTKLTVLG
IC50 [1, 3]: 1220 nM | Fold difference [2, 4]: 102 | IC50 [2, 5]: 12 nM | IC50 [2, 6]: 16 nM

B2: KB_A12_HsTx1 R14A (antibody, V domains shown)
VH: EVQLVESGGGLVRPGGSLRLSCAASGFTFSSYAMSWVRQAPGKGLEWVSAISGSGGSTYYADSVKGRFTISRDNTKNSLYLQMTSLRADDTAFYYCVKDFGPGYGTGWFDYWGPGTLVTVSS
VL: QSVLTQPPSVSEAPRQRVTITCSGSSSNIGNNAVNWYQQLPGKAPKLLIYAAGRASCRTPKDCADPCAKETGCPYGKCMNRKCKCNRCANSGVSDRFSAAKSGTSASLAINGLRSEDEADYYCAAWDDSLNGYVFGTGTKLTVLG
IC50 ([1]; Table E21): 2990 nM | Fold difference ([2]; Kv1.1 IC50 over Kv1.3 IC50, Table E21): >3500 | IC50 ([2]; Table E21, read-out: Kvl.3 IC50): 0.9 nM

B3: KB_A12_AnTx 2 M: AnTx N17A/F32T in VL CDR2 of KB_A12, IgG (antibody, V domains shown)
VH: EVQLVESGGGLVRPGGSLRLSCAASGFTFSSYAMSWVRQAPGKGLEWVSAISGSGGSTYYADSVKGRFTISRDNTKNSLYLQMTSLRADDTAFYYCVKDFGPGYGTGWFDYWGPGTLVTVSS
VL: QSVLTQPPSVSEAPRQRVTITCSGSSSNIGNNAVNWYQQLPGKAPKLLIYAAGRQKECTGPQHCTNFCRKAKCTHGKCMNRKCKCTNCKANSGVSDRFSAAKSGTSASLAINGLRSEDEADYYCAAWDDSLNGYVFGTGTKLTVLG
IC50 [1, 3]: 10300 nM | Fold difference [2, 4]: 94 | IC50 [2, 5]: 110 nM | IC50 [2, 6]: 85 nM

B4: KB_A12_Odk2: OdK2 in VL CDR2 of KB_A12, IgG (antibody, V domains shown)
VH: EVQLVESGGGLVRPGGSLRLSCAASGFTFSSYAMSWVRQAPGKGLEWVSAISGSGGSTYYADSVKGRFTISRDNTKNSLYLQMTSLRADDTAFYYCVKDFGPGYGTGWFDYWGPGTLVTVSS
VL: QSVLTQPPSVSEAPRQRVTITCSGSSSNIGNNAVNWYQQLPGKAPKLLIYAAGRGVPTDVKCRGSPQCIQPCKDAGMRFGKCMNGKCHCTPKANSGVSDRFSAAKSGTSASLAINGLRSEDEADYYCAAWDDSLNGYVFGTGTKLTVLG
IC50 [1, 3]: 2750 nM | Fold difference [2, 4]: 6 | IC50 [2, 5]: 457 nM | IC50 [2, 6]: 222 nM

B5: KB_A12_HsTx1 (antibody, V domains shown)
VH: EVQLVESGGGLVRPGGSLRLSCAASGFTFSSYAMSWVRQAPGKGLEWVSAISGSGGSTYYADSVKGRFTISRDNTKNSLYLQMTSLRADDTAFYYCVKDFGPGYGTGWFDYWGPGTLVTVSS
VL: QSVLTQPPSVSEAPRQRVTITCSGSSSNIGNNAVNWYQQLPGKAPKLLIYAAGRASCRTPKDCADPCRKETGCPYGKCMNRKCKCNRCANSGVSDRFSAAKSGTSASLAINGLRSEDEADYYCAAWDDSLNGYVFGTGTKLTVLG
IC50 [1, 3]: 650 nM | Fold difference [2, 4]: 43 | IC50 [2, 5]: 15 nM | IC50 [2, 6]: 3.9 nM

B6: KB_A12_ADWX1 short: truncated ADWX-1 in VL CDR2 of KB_A12, IgG (antibody, V domains shown)
VH: EVQLVESGGGLVRPGGSLRLSCAASGFTFSSYAMSWVRQAPGKGLEWVSAISGSGGSTYYADSVKGRFTISRDNTKNSLYLQMTSLRADDTAFYYCVKDFGPGYGTGWFDYWGPGTLVTVSS
VL: QSVLTQPPSVSEAPRQRVTITCSGSSSNIGNNAVNWYQQLPGKAPKLLIYAAGRVKCKHSRQCLKPCKDAGMRFGKCTNGKCHCTPKANSGVSDRFSAAKSGTSASLAINGLRSEDEADYYCAAWDDSLNGYVFGTGTKLTVLG
IC50 [1, 3]: 1400 nM | Fold difference [2, 4]: 6 | IC50 [2, 5]: 251 nM | IC50 [2, 6]: 170 nM
